The labels stand for the following.
B3: Fe nitrogenase reductase component AnfH2 (Rhodobacter capsulatus) (enzyme, UniProt Q07942 1-275, looked up)
chain: MTRKIAIYGKGGIGKSTTTQNTAAALAFFHEKNVFIHGCDPKADSTRLILGGLPQQTVMDTLRIEGAERVTVDKVVKTGFKDIRCVESGGPEPGVGCAGRGVITAIDLMEENEAYSEDLDFLFFDVLGDVVCGGFAMPIRDGKAEEVYIVASGEMMAIYAANNICKGLAKYARQSGVRLGGIICNSRNVDGEKEFLEEFTKAIGTKMIHFVPRDNIVQKAEFNKQTVTEFQPEANQAQEYRELGRKIIENEDFVIPKPLAMDELEAMVVKYGLMD
notes: AnfH, nitrogenase iron protein of the Fe-only nitrogenase, Rhodobacter capsulatus B10S; the anfHDGK operon was amplified whole from genomic DNA; Homodimer with one [Fe4S4] cluster between the two chains; in the trapped complex one MgADP·AlF3 per chain; His6-tag inserted without any linker; no cleavage step is described; also called H subunit

Data set [1] concerns the target T1, AnfD, D subunit of the Fe nitrogenase catalytic component (Rhodobacter capsulatus) (Rhodobacter capsulatus, UniProt Q07933 1-526).
T1 construct: AnfD, alpha (D) subunit of the Fe-only nitrogenase, Rhodobacter capsulatus B10S; the anfHDGK operon was amplified whole from genomic DNA; Single subunit, written for the subunit-to-subunit rows of the complexes solved here
The experiment in a line: cryo-EM structure; catalytic component Anf(DGK)2 alone with CHAPSO (0.4% m/V) added on the grid right before plunge freezing; 2.49 Å, C2 symmetry. Conditions: both partners purified.

Data set [2] concerns the target T1, AnfD, D subunit of the Fe nitrogenase …. Kind of data set: mass photometry; individual nitrogenase components; 500 nM stock diluted 0.5 µl into 19.5 µl of 150 mM NaCl, 50 mM Tris pH 7.8, 10% glycerol, 10 mM dithionite. Conditions: both partners purified.
Data set [3] concerns the target B3. Kind of data set: cryo-EM structure; ADP·AlF3-stabilized Anf(DGK)2(H2)2 complex after SEC, 1 mg/ml, anaerobic plunge freezing, no detergent; 2.35 Å, C2 symmetry. Conditions: both partners purified.
Data set [4] deals with the molecule itself. Kind of data set: mass photometry; individual nitrogenase components; 500 nM stock diluted 0.5 µl into 19.5 µl of 150 mM NaCl, 50 mM Tris pH 7.8, 10% glycerol, 10 mM dithionite.
Data set [5] has as its target T2, Fe nitrogenase catalytic component Anf(DGK)2 (Rhodobacter capsulatus) (Rhodobacter capsulatus, UniProt Q07933 1-526; Q07934 1-115; Q07935 1-460).
T2 construct: AnfD, alpha (D) subunit of the Fe-only nitrogenase, Rhodobacter capsulatus B10S; the anfHDGK operon was amplified whole from genomic DNA; AnfG, delta (G) subunit of the Fe-only nitrogenase, Rhodobacter capsulatus B10S; AnfK, beta (K) subunit of the Fe-only nitrogenase, Rhodobacter capsulatus B10S; Heterohexamer with two P-clusters [Fe8S7] and two FeFeco [Fe8S9C-(R)-homocitrate]; Strep-tag II …
Kind of data set: SEC; 4 nmol catalytic and 32 nmol reductase component, 1 h at 30 °C in 100 mM MOPS, 50 mM Tris, 100 mM NaCl pH 7.3, 5 mM dithionite, 4 mM NaF, 0.2 mM AlCl3, 8 mM MgCl2, 1 mM ATP (ADP·AlF3 trap); SEC in 50 mM Tris pH 7.8, 200 mM NaCl, 5 mM dithionite; anaerobic. The conditions noted are these: both partners purified.

The values that follow come from article PMC10803253, “Structural insights into the iron nitrogenase complex” (Nature Structural & Molecular Biology, 2023).

B1: AnfK, K subunit of the Fe nitrogenase catalytic component (Rhodobacter capsulatus) (natural protein, UniProt Q07935 1-460, looked up)
chain: MTCQVTQKAREGTINPIFTCQPAGAQFASIGIKDCIGIVHGGQGCVMFVRLLISQHMKESFEIASSSVHEDGAVFGALDRVETAVEVLLTRYPDVKVVPIITTCSTEIIGDDVDGLLSKLEDELLPTKFPGREVHLLTVHCPSFVGSMITGYDKAVHDFVKKFATKDEPSDKINLITGWVNPGDVKELKHLLEVMEVKANVLFEVESFDSPLMPDLEHHSHGSTTIEDLRDTANAKGTIALNRYEGMKAADYLKKKFKVPAVIGPTPVGIRNTDAFLKAVSEMTGQPIPAQLVKERGLALDAIADIGHMFLADKRVAIYANPDLAIGLTEFCLDLEMKPKLLLLGDDNSGYVKDPRVVALQENAPDLEIVTNADFWDLESRIQQGLELDLILGHSKGRFISIDYKVPMVRVGFPTYDRAGMYRHPVLGYGGAMFLAETMANTLFADMEAKKNKEWILNVW
notes: AnfK, beta (K) subunit of the Fe-only nitrogenase, Rhodobacter capsulatus B10S; the anfHDGK operon was amplified whole from genomic DNA; Single subunit, written for the subunit-to-subunit rows of the complexes solved here
On to B1, for which the binding result in data set [1] is “binds”.

B2: AnfG, G subunit of the Fe nitrogenase catalytic component (Rhodobacter capsulatus) (natural protein, UniProt Q07934 1-115, looked up)
chain: MTDISEKLDPLVDYIMKNCLWQFNSRGWDRLKQNAGILSQTCEILCGEEPVHETAMDRCYWVDAVILSRAYKARFPWLMAMTKPEIKSLFKALHEKIDHLTVHGSLNTELTVPHY
notes: AnfG, delta (G) subunit of the Fe-only nitrogenase, Rhodobacter capsulatus B10S; the anfHDGK operon was amplified whole from genomic DNA; Single subunit, written for the subunit-to-subunit rows of the complexes solved here
As for B2, the binding result in data set [2] and in data set [3] was “binds” each time.

B3: the “stoichiometry N” value in data set [4] is 2 subunits in the oligomer; in data set [5] it was 2 AnfH2 per Anf(DGK)2.
